Where two headings read alike, the source gives them in different places.
T1: recombinant mouse VISTA (His-tagged) (mouse, UniProt Q9D659 33-191)
T1 construct: also called murine VISTA; mVISTA
T1 sequence (looked up): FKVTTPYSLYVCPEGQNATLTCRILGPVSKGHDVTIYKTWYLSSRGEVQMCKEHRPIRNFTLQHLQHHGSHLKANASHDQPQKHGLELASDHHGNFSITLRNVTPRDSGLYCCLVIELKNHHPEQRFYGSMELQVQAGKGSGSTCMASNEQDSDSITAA

T2: human B7H7 (human, UniProt Q9UM44 23-344)
T2 construct: also called HHLA2
T2 sequence (looked up): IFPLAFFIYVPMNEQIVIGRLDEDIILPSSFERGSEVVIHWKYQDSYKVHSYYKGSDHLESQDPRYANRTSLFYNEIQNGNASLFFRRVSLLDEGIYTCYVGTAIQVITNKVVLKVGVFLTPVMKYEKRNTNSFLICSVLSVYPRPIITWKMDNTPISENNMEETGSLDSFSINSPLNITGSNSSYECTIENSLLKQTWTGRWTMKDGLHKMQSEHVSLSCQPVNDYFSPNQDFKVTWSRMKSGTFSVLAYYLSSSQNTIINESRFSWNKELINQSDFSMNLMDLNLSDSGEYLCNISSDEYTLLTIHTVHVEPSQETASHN

T3: human B7H3 (human, UniProt Q5ZPR3 29-461, limits assumed)
T3 construct: also called CD276
T3 sequence (looked up): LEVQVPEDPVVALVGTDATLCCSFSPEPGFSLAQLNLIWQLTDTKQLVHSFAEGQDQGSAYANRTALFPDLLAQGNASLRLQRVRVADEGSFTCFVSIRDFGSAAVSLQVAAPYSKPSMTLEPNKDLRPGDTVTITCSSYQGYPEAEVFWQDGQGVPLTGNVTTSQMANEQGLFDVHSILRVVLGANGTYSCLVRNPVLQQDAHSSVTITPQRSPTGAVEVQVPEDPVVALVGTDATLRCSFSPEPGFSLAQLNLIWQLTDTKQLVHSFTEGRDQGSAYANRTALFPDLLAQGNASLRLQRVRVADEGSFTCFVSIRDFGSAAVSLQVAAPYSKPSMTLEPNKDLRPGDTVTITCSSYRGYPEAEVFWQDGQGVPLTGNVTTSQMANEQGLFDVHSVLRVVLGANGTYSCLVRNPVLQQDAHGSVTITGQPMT

T4: human B7H4 (human, UniProt Q7Z7D3 25-258, limits assumed)
T4 construct: also called VTCN1
T4 sequence (looked up): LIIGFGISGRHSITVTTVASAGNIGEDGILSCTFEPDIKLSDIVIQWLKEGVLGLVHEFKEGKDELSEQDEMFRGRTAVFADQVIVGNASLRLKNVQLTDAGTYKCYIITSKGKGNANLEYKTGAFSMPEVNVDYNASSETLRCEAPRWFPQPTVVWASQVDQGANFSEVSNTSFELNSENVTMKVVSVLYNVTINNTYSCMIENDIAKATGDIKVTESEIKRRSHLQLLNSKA

T5: human B7H6 (human, UniProt Q68D85 25-262)
T5 construct: also called NCR3LG1
T5 sequence (looked up): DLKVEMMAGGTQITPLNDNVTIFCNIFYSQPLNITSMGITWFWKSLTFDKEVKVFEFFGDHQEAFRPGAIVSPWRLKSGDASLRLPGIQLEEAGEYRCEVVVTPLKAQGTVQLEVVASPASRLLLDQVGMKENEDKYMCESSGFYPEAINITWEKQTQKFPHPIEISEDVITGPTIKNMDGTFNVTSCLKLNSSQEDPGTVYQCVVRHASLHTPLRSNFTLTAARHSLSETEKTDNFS

T6: recombinant rat VISTA (His-tagged) (rat, UniProt A0ABK0L5H3 33-192)
T6 sequence: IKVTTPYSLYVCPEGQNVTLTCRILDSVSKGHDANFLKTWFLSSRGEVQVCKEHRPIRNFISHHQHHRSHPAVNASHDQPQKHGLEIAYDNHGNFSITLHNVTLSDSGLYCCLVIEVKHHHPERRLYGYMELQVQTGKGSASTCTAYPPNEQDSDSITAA

T7: mouse VISTA expressed on cells (mouse, UniProt Q9D659 33-308)
T7 construct: whole, on cells; also called murine VISTA on transfected cells; VISTA on mouse CD11b+ myeloid cells
T7 sequence (looked up): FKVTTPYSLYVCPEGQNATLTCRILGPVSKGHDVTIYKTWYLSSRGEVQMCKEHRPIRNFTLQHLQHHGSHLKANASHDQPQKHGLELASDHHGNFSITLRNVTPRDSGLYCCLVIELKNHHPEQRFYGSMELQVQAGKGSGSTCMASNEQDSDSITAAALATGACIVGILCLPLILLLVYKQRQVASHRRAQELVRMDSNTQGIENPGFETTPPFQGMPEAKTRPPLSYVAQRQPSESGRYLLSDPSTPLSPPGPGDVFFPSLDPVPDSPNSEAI


What was measured:
[1] = target: T1, recombinant mouse VISTA (His-tagged); test: BLI (Octet), 1:1 global fit, His-tagged mouse VISTA captured
[2] = target: T8, recombinant human VISTA (His-tagged) (human, UniProt Q9H7M9 33-194); test: ELISA, plate coated with human VISTA; unit nM from the legend paragraph 698
T8 construct: bought soluble protein (Sino Biological); also called hVISTA; human VISTA polypeptide

human B7H7 [3] = target: T2, human B7H7; test: ELISA, plate coated with the antigen
human B7H3 [4] = target: T3, human B7H3; test: ELISA, plate coated with the antigen
human B7H4 [5] = target: T4, human B7H4; test: ELISA, plate coated with the antigen
human B7H6 [6] = target: T5, human B7H6; test: ELISA, plate coated with the antigen
human CTLA4 [7] = target: T9, human CTLA4 (human, UniProt P16410 36-162); test: ELISA, plate coated with the antigen
T9 sequence (P16410 36-162 limits assumed): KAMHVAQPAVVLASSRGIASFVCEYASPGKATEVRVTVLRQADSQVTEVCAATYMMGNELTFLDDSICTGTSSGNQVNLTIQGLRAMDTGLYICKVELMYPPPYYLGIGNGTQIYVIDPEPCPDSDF

human PD-1 [8] = target: T10, human PD-1 (human, UniProt Q15116 25-167); test: ELISA, plate coated with the antigen
T10 sequence (Q15116 25-167 limits assumed): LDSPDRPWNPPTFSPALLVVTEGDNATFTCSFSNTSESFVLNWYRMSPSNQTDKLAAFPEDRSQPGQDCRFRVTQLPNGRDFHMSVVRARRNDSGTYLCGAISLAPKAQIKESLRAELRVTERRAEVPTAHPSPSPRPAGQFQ

[9] = target: T8, recombinant human VISTA (His-tagged); test: ELISA, plate coated with human VISTA; unit nM from the legend paragraph 697
[10] = target: T1, recombinant mouse VISTA (His-tagged); test: ELISA, plate coated with mouse VISTA; unit nM from the legend paragraph 698
[11] = target: T1, recombinant mouse VISTA (His-tagged); test: ELISA, plate coated with mouse VISTA
human PD-L1 = target: T11, human PD-L1 (human, UniProt Q9NZQ7 19-239); test: BLI (Octet), His-tagged human PD-L1 on anti-Penta-HIS biosensor, antibody 500-15.6 nM
T11 construct: captured through a His tag in the BLI experiments; also called hPD-L1; B7H1/PDL-1
T11 sequence (Q9NZQ7 19-239 limits assumed): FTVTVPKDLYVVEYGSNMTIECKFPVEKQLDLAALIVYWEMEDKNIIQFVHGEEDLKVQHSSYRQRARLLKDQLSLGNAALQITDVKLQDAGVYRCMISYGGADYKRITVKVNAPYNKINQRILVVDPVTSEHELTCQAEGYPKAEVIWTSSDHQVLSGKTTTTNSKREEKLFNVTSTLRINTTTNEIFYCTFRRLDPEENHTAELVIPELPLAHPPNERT
Procedure: Finally, the biosensors were incubated for 120 sec in PBS pH 7.2 to obtain the dissociation curves. Kinetic and affinity constants were calculated by global fitting of the association and dissociation data to a 1:1 binding model.

[12] = target: T1, recombinant mouse VISTA (His-tagged); test: BLI (Octet), 1:1 global fit, His-tagged mouse VISTA captured; remark: listed apart in the source
[13] = target: T12, recombinant cynomolgus macaque VISTA (His-tagged) (cynomolgus macaque, UniProt A0A7N9IB00 33-194); test: ELISA, plate coated with cyno VISTA
T12 construct: also called cyno VISTA; cynomolgus monkey VISTA

[14] = target: T8, recombinant human VISTA (His-tagged); test: ELISA, plate coated with human VISTA
[15] = target: T8, recombinant human VISTA (His-tagged); test: ELISA, plate coated with human VISTA; remark: listed apart in the source
[16] = target: T6, recombinant rat VISTA (His-tagged); test: ELISA, plate coated with rat VISTA
[17] = target: T1, recombinant mouse VISTA (His-tagged); test: ELISA, plate coated with mouse VISTA; unit nM from the legend paragraph 697
[18] = target: T8, recombinant human VISTA (His-tagged); test: BLI (Octet), 1:1 global fit, His-tagged human VISTA captured
[19] = target: T8, recombinant human VISTA (His-tagged); test: ELISA, plate coated with human VISTA; remark: listed apart in the source
human B7H7 [20] = target: T2, human B7H7; test: ELISA, plate coated with the antigen; remark: listed apart in the source
human B7H3 [21] = target: T3, human B7H3; test: ELISA, plate coated with the antigen; remark: listed apart in the source
human B7H4 [22] = target: T4, human B7H4; test: ELISA, plate coated with the antigen; remark: listed apart in the source
human B7H6 [23] = target: T5, human B7H6; test: ELISA, plate coated with the antigen; remark: listed apart in the source
human CTLA4 [24] = target: T9, human CTLA4; test: ELISA, plate coated with the antigen; remark: listed apart in the source
human PD-1 [25] = target: T10, human PD-1; test: ELISA, plate coated with the antigen; remark: listed apart in the source
[26] = target: T7, mouse VISTA expressed on cells; test: flow cytometry on cells transfected with murine VISTA

Binder | Kd [1] [nM] | koff [1] [s⁻¹] | kon [1] [M⁻¹ s⁻¹] | EC50 [2] [nM] | EC50 [9] [nM] | EC50 [10] [nM] | EC50 [11] [nM] | binding result (human PD-L1) | Kd [12] [nM] | koff [12] [s⁻¹] | kon [12] [M⁻¹ s⁻¹] | EC50 [13] [nM] | EC50 [15] [nM] | EC50 [16] [nM] | EC50 [17] [nM] | Kd [18] [nM] | koff [18] [s⁻¹] | kon [18] [M⁻¹ s⁻¹] | other results
anti-VISTA clone V4-C30 IgG1 (antibody, V domains shown) VH: QVQLQESGPGLVKPSDTLSLTCTVSGYSITSDYTWNWIRQTPGKGLEWIGHITYSGSVSYNPSLRSRVTISRDTSKNQFSLKLSSVTAADTATYSCARALYYPWYFDVWGTGTTVTVSS VL: EIVLTQSPATLSLSPGERATLSCRASSSVGYIHWYQQKPGQAPRPLIYATYYRATGIPARFSGSGSGTDNTLTISSLEPEDSAVYYCQQWSSYPPITFGGGTKLEVKR | < 0.001 | < 1e-07 | 533000 | 0.088 | < 0.0007 | 0.123 | 0.0326 | no binding (tested: 500 nM) | 0.005 | 2.8e-06 | 505000 | 0.0272 | 0.0318 | 0.206 | 0.0013 | < 0.001 | < 1e-07 | 593000 | binding result (human B7H7 [3]): no binding (tested: log -7.5 M); binding result (human B7H3 [4]): no binding (tested: log -7.5 M); binding result (human B7H4 [5]): no binding (tested: log -7.5 M); binding result (human B7H6 [6]): no binding (tested: log -7.5 M); binding result (human CTLA4 [7]): no binding (tested: log -7.5 M); binding result (human PD-1 [8]): no binding (tested: log -7.5 M); EC50 (read off the curve) [14]: ~0.02 nM
anti-VISTA clone V4-C31 IgG1 (antibody, V domains shown) VH: QVQLQESGPGLVKPSDTLSLTCTVSGYSITSDYTWNWIRQTPGKGLEWIGHITYSGSVSYNPSLRSRVTISRDTSKNQFSLKLSSVTAADTATYSCARALYYPWYFDVWGTGTTVTVSS VL: EIVLTQSPATLSLSPGERATLSCRASSSVGYIHWYQQKPGQAPRPLIYATYYRTTGIPARFSGSGSGTDNTLTISSLEPEDSAVYYCQQWSSYPPITFGGGTKLEVKR | < 0.001 | < 1e-07 | 344000 | 0.02 | 0.0032 | 0.028 | 0.04 | no binding (tested: 500 nM) | < 0.001 | < 1e-07 | 570000 | 0.0321 | 0.0408 | 0.224 | 0.003 | < 0.001 | < 1e-07 | 623000 | EC50 (read off the curve) [19]: ~0.02 nM; binding result (human B7H7 [20]): no binding (tested: log -7.5 M); binding result (human B7H3 [21]): no binding (tested: log -7.5 M); binding result (human B7H4 [22]): no binding (tested: log -7.5 M); binding result (human B7H6 [23]): no binding (tested: log -7.5 M); binding result (human CTLA4 [24]): no binding (tested: log -7.5 M); binding result (human PD-1 [25]): no binding (tested: log -7.5 M)
anti-VISTA clone 13D5p IgG1 (antibody, V domains shown) VH: QVQLQQSGAELVRPGTSVKISCKASGYTFTNYWLGWVKQRPGHGLEWIGDIYPGGGYTNYNEKFKGKATLTADTSSSTAYMQLSSLTSEDSAVYFCARGGYYYGSSWYFDVWGAGTTVTVSS VL: DVLMTQTPLSLPVSLGDQASISCRSSQSIVHSNGNTYLEWYLQKPGQSPKLLIYKVSNRFSGVPDRFSGSGSGTDFTLKISRVEAEDLGVYYCFQGSHVPPTFGGGTKLEIKR |  |  |  |  |  |  |  |  |  |  |  |  |  |  |  |  |  |  | binding result [26]: binds
